The values below come from US20210040181A1 (Bristol-Myers Squibb, published 2021).

Test [1] deals with T1, EGFR on the surface of human A431 cells (human, UniProt P00533 25-1210). As to the kind of experiment: cell-based or functional assay.
Test [2] deals with T1, EGFR on the surface of human A431 cells. As to the kind of experiment: competition with 10 nM Eu-EGF on A431 cells, time resolved fluorescence; Midscale preparation. On the procedure:
(§1) Human epithelial carcinoma cells, clone A431, which express large numbers of EGFRs on the cell surface, are plated into 96 well tissue culture plates and allowed to adhere for 48 hours. The cells are washed with serum free media and dilutions of the selected clones are incubated with the cells for 15 minutes, 37° C. in a humidified incubator in 5% CO₂. This incubation allows binding of the clone to the EGFR on the cell surface.

Test [3] has as its target EGFR 525-Fc (human) (UniProt P00533). As to the kind of experiment: direct binding ELISA, single point; clone captured by anti-His, 50 nM receptor-Fc, anti-human Fc HRP.
Test [4] addresses T1, EGFR on the surface of human A431 cells. As to the kind of experiment: competition with 10 nM Eu-EGF on A431 cells, time resolved fluorescence; protein diluted in PBS buffer. On the procedure:
as §1

Test [5] has the same target. As to the kind of experiment: competition with 10 nM Eu-EGF on A431 cells, time resolved fluorescence; protein diluted in Tris buffer. The procedure:
as §1

Test [6] deals with T2, EGFR-Fc (R&D Systems), ectodomain of human EGFR as a Fc fusion (human, UniProt P00533 25-645).
T2 construct: extracellular domain; Bought from R&D Systems; also called EGFR-FL-Fc; full length EGFR Fc fusion protein; not shown: Fc of the purchased fusion
As to the kind of experiment: direct binding ELISA, single point; clone captured by anti-His, 50 nM receptor-Fc, anti-human Fc HRP. The procedure: Proteins encoded by independent clones were analyzed for binding to the full length ectodomain of EGFR as well as a truncated version containing the first 525 amino acids (EGFR 525) of the EGFR ectodomain in single point direct binding assays. Anti-His antibodies were used to capture protein clones in an oriented fashion followed by incubation with full length EGFR or EGFR 525 Fc fusion proteins. Bound receptor-Fcs were detected via anti-human Fc HRP conjugate with a chromogenic readout (i.e. A450). […] The SGE control is the ¹⁰FN3 domain as shown in SEQ ID NO: 1 with the integrin binding domain (RGD) substituted with amino acids SGE.
The protein populations resulting from the above selections are expressed in E. coli as His6 tagged proteins. The direct binding ELISA relies on the oriented capture of His6 tagged clones onto anti-His monoclonal antibody plates (EMD Biosciences, San Diego, Calif.) blocked with casein block buffer (Pierce, Rockford, Ill.) for 1-2 hrs. Typically a 1:50 dilution of HTPP material (0.2-2 ug) is captured for 1 hr, followed by incubation with 50 nM of the EGFR-Fc targets. Bound EGFR-Fcs are detected by incubation with anti-human HRP. Bound HRP conjugate is detected using the colorimetric substrate TMB (BD Biosciences, San Jose, Calif.) following the manufacturer's instructions.
A general note: An ELISA detects its analyte on a solid surface through an enzyme-linked reagent.

B1: 679F09 (designed binder)
chain: VSDVPRDLEVVAATPTSLLISWQVPRPMYQRYYRITYGETGGNSPVQEFTVPGGVRTATISGLKPGVDYTITVYAVTDYMHSEYRQYPISINYRT
notes: 10Fn3-based clone expressed in E. coli as His6 tagged protein; also called clone 679F09; not shown: His6 tag
Broadly, the IC50 is the concentration that gives 50% inhibition. Low values mean greater potency, high ones weaker potency. Consider B1, for which, in test [1], the “EGF-stimulated EGFR phosphorylation on tyrosine 1068, A431 cells (In Cell Western), IC50” value is 2800 nM; the “EGF-stimulated EGFR phosphorylation on tyrosine 1068, DiFi cells (ELISA), IC50” value was 1490 nM; the “EGF-stimulated EGFR phosphorylation on tyrosine 1068, FaDu cells (In Cell Western), IC50” value turned out to be 1300 nM; the “EGF-stimulated ERK phosphorylation, A431 cells (In Cell Western), IC50” value is 3100 nM. In test [1], the “EGF-stimulated ERK phosphorylation, DiFi cells (ELISA), IC50” value is greater than 4000 nM; the “EGF-stimulated ERK phosphorylation, FaDu cells (In Cell Western), IC50” value amounted to 2000 nM; the “EGF-stimulated total EGFR phosphorylation, A431 cells (In Cell Western), IC50” value was 2400 nM; the “EGF-stimulated total EGFR phosphorylation, DiFi cells (ELISA), IC50” value worked out at 5300 nM. In test [2], this molecule gave an IC50 of 14.7 nM. Moreover, in test [3], the A450 turned out to be 2.47 A450. Moreover, the IC50 in test [4] turned out to be 13 nM. The IC50 in test [5] worked out at 20 nM. The A450 in test [6] came to 2.42 A450.
